Source: patent US20250011422A1

Tests used:
[1] = target: human Siglec-6 on the cell surface (U937, MEC1-002, MEC1-hS6, primary CLL cells) (human) (UniProt O43699); assay: quantitative flow cytometry, primary CLL cells (live, CD20+ CD5+), CLL patient 2691
[2] = target: human Siglec-6 on the cell surface (U937, MEC1-002, MEC1-hS6, primary CLL cells) (human) (UniProt O43699); assay: quantitative flow cytometry, primary CLL cells (live, CD20+ CD5+), CLL patient 8242
[3] = target: human Siglec-6 on the cell surface (U937, MEC1-002, MEC1-hS6, primary CLL cells) (human) (UniProt O43699); assay: quantitative flow cytometry with bead calibration standard, cell line MEC1-002
[4] = target: human Siglec-6 on the cell surface (U937, MEC1-002, MEC1-hS6, primary CLL cells) (human) (UniProt O43699); assay: quantitative flow cytometry, primary CLL cells (live, CD20+ CD5+), CLL patient 4973
[5] = target: human Siglec-6 on the cell surface (U937, MEC1-002, MEC1-hS6, primary CLL cells) (human) (UniProt O43699); assay: quantitative flow cytometry, primary CLL cells (live, CD20+ CD5+), CLL patient 3071
[6] = target: human Siglec-6 on the cell surface (U937, MEC1-002, MEC1-hS6, primary CLL cells) (human) (UniProt O43699); assay: quantitative flow cytometry, primary CLL cells (live, CD20+ CD5+), CLL patient 4705
[7] = target: human Siglec-6 on the cell surface (U937, MEC1-002, MEC1-hS6, primary CLL cells) (human) (UniProt O43699); assay: quantitative flow cytometry, primary CLL cells (live, CD20+ CD5+), CLL patient 11944

Sequence of human Siglec-6 on the cell surface (U937, MEC1-002, MEC1-hS6, primary CLL cells) (human) (O43699 27-453): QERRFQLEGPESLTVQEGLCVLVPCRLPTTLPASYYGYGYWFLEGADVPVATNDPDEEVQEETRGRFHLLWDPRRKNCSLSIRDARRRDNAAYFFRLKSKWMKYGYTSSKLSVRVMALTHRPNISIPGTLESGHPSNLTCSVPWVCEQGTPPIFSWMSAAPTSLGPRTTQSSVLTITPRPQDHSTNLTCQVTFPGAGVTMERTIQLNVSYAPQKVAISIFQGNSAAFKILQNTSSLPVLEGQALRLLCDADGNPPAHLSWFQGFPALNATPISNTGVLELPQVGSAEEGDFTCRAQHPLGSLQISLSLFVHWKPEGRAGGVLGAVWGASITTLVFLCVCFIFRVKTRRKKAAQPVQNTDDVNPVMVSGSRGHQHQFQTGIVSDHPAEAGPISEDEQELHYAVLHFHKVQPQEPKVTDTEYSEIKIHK

Substance: commercial mouse anti-human Siglec-6 mAb clone 767329 (R&D Systems) (antibody)
- Siglec-6 (ABC-isotype) [1]: 6040 ABC
- Siglec-6 (ABC-isotype) [2]: 843 ABC
- Siglec-6 (ABC-isotype) [3]: 1450 ABC
- Siglec-6 (ABC-isotype) [4]: 3670 ABC
- Siglec-6 (ABC-isotype) [5]: 1540 ABC
- Siglec-6 (ABC-isotype) [6]: 2430 ABC
- Siglec-6 (ABC-isotype) [7]: 3580 ABC
